Literature values as cited in publication PMC3166974.

Legend:
PKR (Homo sapiens) = PKR (Homo sapiens) (UniProt P19525)
SecA (Escherichia coli) = SecA (Escherichia coli) (UniProt P10408)

Kd (PKR (Homo sapiens)) [µM] | Substance | Kd (SecA (Escherichia coli)) [µM]
500 | PKR (from UniProt P19525) | –
– | SecA (from UniProt P10408) | 18.6
